Experiments:
HaCaT = HaCaT proliferation, MTT assay; assay type: cell-based; conditions: Homo sapiens, 72 hours, unit nM
Description: HaCaT, a human epidermal keratinocyte line from The Second Military Medical University (SMMU), China, was cultured in DMEM containing 10% FBS.
HaCaT were seeded in 96-well plates at 4×10^4 cells/well overnight. Stausporine or test articles were then added into the culture and incubated at 37° C., 5% CO2 for 72 hours. After removal of the media, the cells in 96-well plates were exposed to 100 μL of MTT (0.5 mg/mL in DMEM containing 10% FBS per well and incubated for 3 hours at 37° C., 5% CO2. Subsequently, the supernatants were removed and 150 μL of DMSO were added to each well. The plate was incubated in the dark for 10 minutes and the absorbance at 492 nm was recorded immediately using Multiskan MK3microplate reader (Thermo Life Sciences, HK, China).
All IC50 values were determined by using Xlfit™ software (version 2.0) from ID
Background was defined in culture with cells treated with DMSO only and was subtracted for IC50 calculations.

ears of mice = test: Ear inflammation after intradermal injection of IL-22 (study 1, establishment of model); assay type: in vivo, BABL/c mice
Description: FIG. 3: Group and dosing for in vivo evaluation of extracts from Qingdai in IL-22 induced psoriasis model. Five studies were designed and outlined in study 1-5, respectively. In Study 1, 100 ng and 500 ng of IL-22 in 20 μL saline, i.d., were used for induction. In study 2-5, 500 ng of IL-22 in […], i.d., were used for induction.
FIG. 4: Figures illustrate ear inflammation after intradermal injection of IL-22. In the studies, ears of mice were injected intradermally and ear thickness was measured on days between injections.
BABL/c mice, male, body weight 19-22 g, purchased from Shanghai SLC AnimalCenter.
Intradermal injection of 20 μL PBS, either alone or containing 100 or 500 ng recombinant mouse IL-22 (eBiosience), was administered into the ears of anesthetized mice using a 30-gauge needle every other day for eleven days. Ear thicknesses were measured before injection on day 0 and thereafter on days without injections. Ear measurements were taken at the center of the ears using a digimatic micrometer caliper (Mitutoyo).
Results of ear thickness data were expressed as mean±S.E.M. AUC of ear swelling was calculated by the ear thickness data from day 0 to day 11, and analyzed by repeated-measured ANOVA methods with JMP® software. Cytokine protein and gene expression data were evaluated with a one-way ANOVA and followed by student's t-test for post-hoc analysis. […]

Molecule	IC50 (HaCaT) [nM]	ear thickness (d 15) (ears of mice; study 1, IL-22 100 ng in 20 μL saline i.d., day 15) [μm]	ear thickness (d 15) (ears of mice; study 1, IL-22 500 ng in 20 μL saline i.d., second value of the cell, day 15 as in the lines above) [μm]
CN[C@@H]1C[C@H]2O[C@@](C)([C@@H]1OC)n1c3ccccc3c3c4c(c5c6ccccc6n2c5c31)C(=O)NC4 [Staurosporine]	3.18	–	–
IL-22: Recombinant mouse IL-22, intradermal inducer of ear inflammation (protein, UniProt Q9JJY9 34-179, looked up) Interleukin-22: LPVNTRCKLEVSNFQQPYIVNRTFMLAKEASLADNNTDVRLIGEKLFRGVSAKDQCYLMKQVLNFTLEDVLLPQSDRFQPYMQEVVPFLTKLSNQLSSCHISGDDQNIQKNVRRLKETVKKLGESGEIKAIGELDLLFMSLRNACV	–	255.3 ± 15.1	296.3 ± 5.0
